Results from patent publication US20030199671A1, “Binding molecules for Fc-region polypeptides” (priority 2001, published 2003).
Starred links: 1 amine or outer side, 2 acyl side, 3 side chain; linkers in the order of their positions; H or OH if unused. Primed or numbered codes have the meaning given here. code X″ = C-terminal linker unit, -NH-(CH2CH2O)2-CH2CH2- (X-NH2 = -NH-(CH2CH2O)2-CH2CH2-NH2), C(COCCOCC[*:2])N[*:1]; Su = not defined here

Legend:
[1] = target: human IgG (unfractionated, polyclonal); assay: total dynamic capacity
[2] = target: human IgG (unfractionated, polyclonal); assay: filterplate; 25 mg human IgG applied per ml resin

Dynamic Cap. [1]	Static Cap. [2]	Binder
8 mg/mL	20 mg/mL	Ac-GDDHMCVYTTWGELIWCDNHEPGPEG-{NH‑(CH2CH2O)2‑CH2CH2‑NH2} (not fully specified (bridges); printed as Ac-GDDHMCVYTTWGELIWCDNHEPGPEG-X-NH2; cysteine pairing not given here) [DX877]
9 mg/mL	23 mg/mL	Ac-GDDHMCVYTTWGELIWCDNHEPG-{code X″-Su-code X″-NH2} (not fully specified (bridges); printed as Ac-GDDHMCVYTTWGELIWCDNHEPG-X-Su-X-NH2; cysteine pairing not given here; reading uncertain) [DX878]
